Assay results as given in PMC7401801.

Target: CRM1 (UniProt O14980)
Experiment: GFP IP of CRM1-EGFP, Flag blot
Conditions: reference: Flag-TFEB wild type; sites S142

binding against the reference: weaker
Substance: TFEB (from UniProt P19484) Flag-TFEB(S142A)
